The subject of the assay is GLI-dependent firefly luciferase activity in Shh-LIGHT2 cells. Kind of assay: GLI-dependent luciferase assay in Shh-L2 cells. The assay is classed as cell-based, mouse. Conditions: for enhancement of transcriptional activity of overexpressed GLI1: cotransfected with GLI1, Shh-L2 cells; for enhancement of transcriptional activity of overexpressed GLI2: cotransfected with GLI2, Shh-L2 cells; for stimulation of GLI-dependent luciferase activity: kinase construct alone, Shh-L2 cells, normalized with β-galactosidase. On the procedure: Cells were transfected by the expression constructs or respective empty vectors using Polyethylenimine transfection agent (PEI) (Inbio) and as described in [28]. We used 0.25 μg of cDNA per 1 cm^2 of plate surface area for transfections. After 3 h of transfection HEK293, NIH3T3 and Cos1 cells were propagated in the normal growth medium for 48 h. Prior the further analysis the cells were washed twice with PBS. Post-transfectional Shh-L2 cells were grown in the normal growth medium for 24 h and for additional 24 h in the Light medium containing 0.25% FBS, washed once with PBS, lysed in Passive Lysis Buffer (Promega, Madison Wis., USA) (70 ul per well of 24-well plate format) and subjected to luciferase assay.
Luciferase assay was performed as previously described. Briefly, firefly luciferase activity of 12 μl of the Shh-L2 cells lysate was measured using Luciferase Assay Kit (Promega) and galactosidase activity was quantified using Galacto-LightPlus kit (Tropix, Bedford Mass., USA) according to the manufacturer's instructions. Chemiluminicence was measured using Ascent FL Fluoroscan (Thermo Electron Corporation, Waltham Mass., USA) according to the manufacturer's instructions.
We cotransfected the constructs together with GLI-expressing plasmids (or respective empty vector) into Shh-L2 cells and assessed their effect on GLI-dependent firefly luciferase activity. The obtained data was normalized with β-galactosidase values. […] It was able to stimulate the luciferase activity 3.8 times and enhanced the transcriptional activity of over expressed GLI1 and GLI2 approximately 2 and 3.2 times, respectively. The potency of STK36 in the assay was much lower.
In order to examine if the kinase activity of ULK3 is required for the luciferase reporter activation we tested the supposed kinase-deficient variants of ULK3, ULK3(K44R) and ULK3(K139R) in the same assay. […] We also tested the effect of ULK3 and the mutants on the luciferase reporter when the SHH pathway was activated by cotransfection with pShhN (plasmid expressing biologically active part of SHH).

B1: STK36: human serine/threonine kinase STK36, mammalian orthologue of dFu, expressed from STK36pcDNA3.1 (protein, UniProt Q9NRP7 1-1315, looked up)
Serine/threonine-protein …: MEKYHVLEMIGEGSFGRVYKGRRKYSAQVVALKFIPKLGRSEKELRNLQREIEIMRGLRHPNIVHMLDSFETDKEVVVVTDYAEGELFQILEDDGKLPEDQVQAIAAQLVSALYYLHSHRILHRDMKPQNILLAKGGGIKLCDFGFARAMSTNTMVLTSIKGTPLYMSPELVEERPYDHTADLWSVGCILYELAVGTPPFYATSIFQLVSLILKDPVRWPSTISPCFKNFLQGLLTKDPRQRLSWPDLLYHPFIAGHVTIITEPAGPDLGTPFTSRLPPELQVLKDEQAHRLAPKGNQSRILTQAYKRMAEEAMQKKHQNTGPALEQEDKTSKVAPGTAPLPRLGATPQESSLLAGILASELKSSWAKSGTGEVPSAPRENRTTPDCERAFPEERPEVLGQRSTDVVDLENEEPDSDNEWQHLLETTEPVPIQLKAPLTLLCNPDFCQRIQSQLHEAGGQILKGILEGASHILPAFRVLSSLLSSCSDSVALYSFCREAGLPGLLLSLLRHSQESNSLQQQSWYGTFLQDLMAVIQAYFACTFNLERSQTSDSLQVFQEAANLFLDLLGKLLAQPDDSEQTLRRDSLMCFTVLCEAMDGNSRAISKAFYSSLLTTQQVVLDGLLHGLTVPQLPVHTPQGAPQVSQPLREQSEDIPGAISSALAAICTAPVGLPDCWDAKEQVCWHLANQLTEDSSQLRPSLISGLQHPILCLHLLKVLYSCCLVSEGLCRLLGQEPLALESLFMLIQGKVKVVDWEESTEVTLYFLSLLVFRLQNLPCGMEKLGSDVATLFTHSHVVSLVSAAACLLGQLGQQGVTFDLQPMEWMAAATHALSAPAEVRLTPPGSCGFYDGLLILLLQLLTEQGKASLIRDMSSSEMWTVLWHRFSMVLRLPEEASAQEGELSLSSPPSPEPDWTLISPQGMAALLSLAMATFTQEPQLCLSCLSQHGSILMSILKHLLCPSFLNQLRQAPHGSEFLPVVVLSVCQLLCFPFALDMDADLLIGVLADLRDSEVAAHLLQVCCYHLPLMQVELPISLLTRLALMDPTSLNQFVNTVSASPRTIVSFLSVALLSDQPLLTSDLLSLLAHTARVLSPSHLSFIQELLAGSDESYRPLRSLLGHPENSVRAHTYRLLGHLLQHSMALRGALQSQSGLLSLLLLGLGDKDPVVRCSASFAVGNAAYQAGPLGPALAAAVPSMTQLLGDPQAGIRRNVASALGNLGPEGLGEELLQCEVPQRLLEMACGDPQPNVKEAALIALRSLQQEPGIHQVLVSLGASEKLSLLSLGNQSLPHSSPRPASAKHCRKLIHLLRPAHSM
On to B1, for which the “enhancement of transcriptional activity of overexpressed GLI1” value was “no effect”, the “enhancement of transcriptional activity of overexpressed GLI2” value is given as 1.6 times and the “stimulation of GLI-dependent luciferase activity” value is given as “failed to activate”.

B2: ULK1: unc-51-like kinase 1, homologue of ULK3, overexpressed in Shh-L2 cells (protein, UniProt O75385 1-1050, looked up)
Serine/threonine-protein …: MEPGRGGTETVGKFEFSRKDLIGHGAFAVVFKGRHREKHDLEVAVKCINKKNLAKSQTLLGKEIKILKELKHENIVALYDFQEMANSVYLVMEYCNGGDLADYLHAMRTLSEDTIRLFLQQIAGAMRLLHSKGIIHRDLKPQNILLSNPAGRRANPNSIRVKIADFGFARYLQSNMMAATLCGSPMYMAPEVIMSQHYDGKADLWSIGTIVYQCLTGKAPFQASSPQDLRLFYEKNKTLVPTIPRETSAPLRQLLLALLQRNHKDRMDFDEFFHHPFLDASPSVRKSPPVPVPSYPSSGSGSSSSSSSTSHLASPPSLGEMQQLQKTLASPADTAGFLHSSRDSGGSKDSSCDTDDFVMVPAQFPGDLVAEAPSAKPPPDSLMCSGSSLVASAGLESHGRTPSPSPPCSSSPSPSGRAGPFSSSRCGASVPIPVPTQVQNYQRIERNLQSPTQFQTPRSSAIRRSGSTSPLGFARASPSPPAHAEHGGVLARKMSLGGGRPYTPSPQVGTIPERPGWSGTPSPQGAEMRGGRSPRPGSSAPEHSPRTSGLGCRLHSAPNLSDLHVVRPKLPKPPTDPLGAVFSPPQASPPQPSHGLQSCRNLRGSPKLPDFLQRNPLPPILGSPTKAVPSFDFPKTPSSQNLLALLARQGVVMTPPRNRTLPDLSEVGPFHGQPLGPGLRPGEDPKGPFGRSFSTSRLTDLLLKAAFGTQAPDPGSTESLQEKPMEIAPSAGFGGSLHPGARAGGTSSPSPVVFTVGSPPSGSTPPQGPRTRMFSAGPTGSASSSARHLVPGPCSEAPAPELPAPGHGCSFADPITANLEGAVTFEAPDLPEETLMEQEHTEILRGLRFTLLFVQHVLEIAALKGSASEAAGGPEYQLQESVVADQISLLSREWGFAEQLVLYLKVAELLSSGLQSAIDQIRAGKLCLSSTVKQVVRRLNELYKASVVSCQGLSLRLQRFFLDKQRLLDRIHSITAERLIFSHAVQMVQSAALDEMFQHREGCVPRYHKALLLLEGLQHMLSDQADIENVTKCKLCIERRLSALLTGICA
Consider B2, for which the “enhancement of transcriptional activity of overexpressed GLI1” value is reported as “no effect”, the “enhancement of transcriptional activity of overexpressed GLI2” value is recorded as “no effect” and the “stimulation of GLI-dependent luciferase activity” value is 3.4 times.

For the origin of these results see patent US20130040894A1, “INHIBITION OR ACTIVATION OF SERINE/THREONINE ULK3 KINASE ACTIVITY” (TALLINN UNIVERSITY OF TECHNOLOGY, priority 2009, published 2013).
